Assay results reported in patent publication US20180057604A1 (Genentech, published 2018).

T1: cyno TfR extracellular domain (analogous construct to human TfR ecd) (cynomolgus monkey, UniProt Q5RDH6 87-760 (Pongo abelii entry))
T1 construct: also called cynoTfR ecd
T1 chain: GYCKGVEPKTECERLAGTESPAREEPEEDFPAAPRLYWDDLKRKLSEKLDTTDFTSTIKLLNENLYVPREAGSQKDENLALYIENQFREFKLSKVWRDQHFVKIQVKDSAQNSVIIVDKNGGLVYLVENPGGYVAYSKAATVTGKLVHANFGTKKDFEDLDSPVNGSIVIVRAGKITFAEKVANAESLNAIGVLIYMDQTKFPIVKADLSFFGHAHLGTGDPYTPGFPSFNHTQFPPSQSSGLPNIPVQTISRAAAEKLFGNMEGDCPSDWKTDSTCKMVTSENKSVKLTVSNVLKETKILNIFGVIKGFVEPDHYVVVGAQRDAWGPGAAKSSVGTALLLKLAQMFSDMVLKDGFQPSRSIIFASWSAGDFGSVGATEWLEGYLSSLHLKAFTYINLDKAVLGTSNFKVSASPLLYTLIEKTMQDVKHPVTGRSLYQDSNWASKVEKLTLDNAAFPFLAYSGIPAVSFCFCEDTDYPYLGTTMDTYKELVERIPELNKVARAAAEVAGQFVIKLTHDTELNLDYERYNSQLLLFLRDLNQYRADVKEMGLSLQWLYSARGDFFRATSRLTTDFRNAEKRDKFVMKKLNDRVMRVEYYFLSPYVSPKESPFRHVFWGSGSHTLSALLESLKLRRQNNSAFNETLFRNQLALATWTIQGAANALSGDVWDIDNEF


Key:
[1] = biological target: T1, cyno TfR extracellular domain …; assay: SPR, IgG;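 also: His-tagged TfR captured via immobilized anti-His antibody on a CM5 chip, antibody injected in 3-fold dilution series by single cycle kinetics, 1:1 Langmuir or steady-state fit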
[2] = biological target: T2, human TfR extracellular domain with N-terminal His tag (human, UniProt P02786 89-760); assay: SPR, IgG;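 also: His-tagged TfR captured via immobilized anti-His antibody on a CM5 chip, antibody injected in 3-fold dilution series by single cycle kinetics, 1:1 Langmuir or steady-state fit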
T2 construct: Biotinylated in some assays; also called huTfR; HuTfR
T2 sequence (P02786 89-760 G142S): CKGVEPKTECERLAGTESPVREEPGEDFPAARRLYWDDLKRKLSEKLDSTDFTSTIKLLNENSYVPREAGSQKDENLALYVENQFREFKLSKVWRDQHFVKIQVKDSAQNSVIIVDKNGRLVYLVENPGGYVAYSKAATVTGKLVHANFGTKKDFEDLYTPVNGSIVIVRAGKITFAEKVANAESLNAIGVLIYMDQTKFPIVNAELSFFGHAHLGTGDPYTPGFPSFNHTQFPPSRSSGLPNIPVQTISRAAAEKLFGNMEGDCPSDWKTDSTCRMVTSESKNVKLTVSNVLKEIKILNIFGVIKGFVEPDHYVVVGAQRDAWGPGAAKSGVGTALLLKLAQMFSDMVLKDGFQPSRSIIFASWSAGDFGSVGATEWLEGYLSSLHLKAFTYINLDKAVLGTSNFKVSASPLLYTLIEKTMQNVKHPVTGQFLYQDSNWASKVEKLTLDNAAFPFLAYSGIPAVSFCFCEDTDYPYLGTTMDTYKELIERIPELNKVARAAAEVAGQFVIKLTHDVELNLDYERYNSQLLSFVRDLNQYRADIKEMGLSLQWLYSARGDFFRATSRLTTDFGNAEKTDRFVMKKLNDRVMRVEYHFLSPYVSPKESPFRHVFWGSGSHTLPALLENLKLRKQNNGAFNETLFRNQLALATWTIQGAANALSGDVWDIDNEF

human BACE1 ECD [3] = biological target: T3, human BACE1 ECD; assay: Octet, pH 5.0
T3 construct: analyte of the Octet assay (200 nM) and enzyme of the first short substrate assay; also called human BACE1 extracellular domain
T3 sequence (single chain, as listed by the source limits assumed): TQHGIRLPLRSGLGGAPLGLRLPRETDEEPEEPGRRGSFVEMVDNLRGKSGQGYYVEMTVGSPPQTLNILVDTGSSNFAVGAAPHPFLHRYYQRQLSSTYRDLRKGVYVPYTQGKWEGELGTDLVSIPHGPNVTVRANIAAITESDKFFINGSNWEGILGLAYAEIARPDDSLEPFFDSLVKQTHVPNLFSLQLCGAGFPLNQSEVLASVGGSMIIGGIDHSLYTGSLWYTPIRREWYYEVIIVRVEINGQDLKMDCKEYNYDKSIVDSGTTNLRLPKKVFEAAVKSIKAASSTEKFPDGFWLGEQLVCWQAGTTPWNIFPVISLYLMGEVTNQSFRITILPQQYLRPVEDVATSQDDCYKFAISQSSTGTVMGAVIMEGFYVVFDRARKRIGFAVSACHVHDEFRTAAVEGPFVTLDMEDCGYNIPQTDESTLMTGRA

murine BACE1 ECD [4] = biological target: T4, murine BACE1 ECD; assay: Octet, pH 5.0
T4 construct: analyte of the Octet assay (200 nM) and enzyme of the first short substrate assay
T4 sequence (single chain, as listed by the source limits assumed): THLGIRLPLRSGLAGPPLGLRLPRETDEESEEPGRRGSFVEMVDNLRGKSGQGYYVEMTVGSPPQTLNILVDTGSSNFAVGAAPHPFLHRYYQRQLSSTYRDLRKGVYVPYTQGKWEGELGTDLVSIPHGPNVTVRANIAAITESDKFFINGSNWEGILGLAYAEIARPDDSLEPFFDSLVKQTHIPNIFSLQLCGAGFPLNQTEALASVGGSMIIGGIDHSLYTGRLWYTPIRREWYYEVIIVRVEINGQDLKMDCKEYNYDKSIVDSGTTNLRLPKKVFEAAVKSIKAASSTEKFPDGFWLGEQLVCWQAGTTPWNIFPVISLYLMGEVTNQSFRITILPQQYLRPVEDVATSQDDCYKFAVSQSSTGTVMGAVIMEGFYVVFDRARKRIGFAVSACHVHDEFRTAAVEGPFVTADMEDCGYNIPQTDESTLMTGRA

[5] = biological target: BACE1 (HTRF long substrate and FRET short substrate assays of Example 9D); assay: cell-based or functional assay
[6] = biological target: T5, human BACE1 (R&D Systems) (human, UniProt P56817); assay: SPR (Biacore)
T5 construct: recombinant, commercial (R&D Systems)
T5 sequence (P56817 22-457 limits assumed): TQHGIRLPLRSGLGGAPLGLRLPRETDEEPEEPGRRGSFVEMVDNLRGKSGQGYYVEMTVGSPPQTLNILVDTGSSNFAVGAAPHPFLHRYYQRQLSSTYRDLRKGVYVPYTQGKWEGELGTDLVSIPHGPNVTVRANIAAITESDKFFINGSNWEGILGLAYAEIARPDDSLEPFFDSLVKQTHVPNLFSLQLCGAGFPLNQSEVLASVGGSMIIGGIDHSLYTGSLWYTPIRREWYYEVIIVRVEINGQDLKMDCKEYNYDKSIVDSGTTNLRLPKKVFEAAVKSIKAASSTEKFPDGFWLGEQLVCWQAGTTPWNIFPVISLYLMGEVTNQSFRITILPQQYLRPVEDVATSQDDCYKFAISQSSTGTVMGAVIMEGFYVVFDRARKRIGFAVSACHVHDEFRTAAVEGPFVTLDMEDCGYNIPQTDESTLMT

human BACE1 ECD [7] = biological target: T3, human BACE1 ECD; assay: Octet, pH 7.5;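 also: antibodies captured on anti-human capture biosensor tips, dissociation followed in PBS with BSA buffer, kinetics fitted with a one-to-one binding model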
murine BACE1 ECD [8] = biological target: T4, murine BACE1 ECD; assay: Octet, pH 7.5;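 also: antibodies captured on anti-human capture biosensor tips, dissociation followed in PBS with BSA buffer, kinetics fitted with a one-to-one binding model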
[9] = biological target: BACE1 in primary mouse cortical neurons (mouse, UniProt P56818 46-501); assay: cell-based or functional assay
Chain of BACE1 in primary mouse cortical neurons (P56818 46-501): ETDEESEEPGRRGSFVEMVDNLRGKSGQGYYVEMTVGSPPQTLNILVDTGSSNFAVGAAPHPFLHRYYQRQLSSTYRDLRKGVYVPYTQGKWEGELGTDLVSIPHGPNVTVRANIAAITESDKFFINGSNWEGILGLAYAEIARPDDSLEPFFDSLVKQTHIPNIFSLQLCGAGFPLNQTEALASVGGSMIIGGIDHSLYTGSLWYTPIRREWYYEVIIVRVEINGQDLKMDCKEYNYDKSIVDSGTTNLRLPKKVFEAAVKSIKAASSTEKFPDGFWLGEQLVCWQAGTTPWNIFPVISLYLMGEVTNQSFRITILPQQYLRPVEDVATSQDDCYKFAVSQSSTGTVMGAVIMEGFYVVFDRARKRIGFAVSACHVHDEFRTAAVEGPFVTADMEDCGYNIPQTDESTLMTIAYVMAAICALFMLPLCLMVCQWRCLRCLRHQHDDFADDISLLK

human BACE1 ECD [10] = biological target: T3, human BACE1 ECD; assay: cell-based or functional assay
murine BACE1 ECD [11] = biological target: T4, murine BACE1 ECD; assay: cell-based or functional assay

Row | Kd [1] [nM] | Kd [2] [nM] | Kd (human BACE1 ECD [3]) [nM] | Kd (murine BACE1 ECD [4]) [nM] | EC50, FRET short substrate [5] [nM] | EC50, HTRF long substrate [5] [nM] | Kd [6] [nM] | Kd (human BACE1 ECD [7]) [nM] | Kd (murine BACE1 ECD [8]) [nM] | IC50, Abeta x-40 in mouse cortical neurons [9] [nM] | maximal % inhibition of Abeta x-40 [9] [%] | % inhibition of BACE1 activity, short FRET substrate (human BACE1 ECD [10]) [%] | % inhibition of BACE1 activity, short FRET substrate (murine BACE1 ECD [11]) [%] | Binder
1 | 7.04 | 3.89 |  |  |  |  |  |  |  |  |  |  |  | hu15G11.v4 (antibody, V domains shown, IgG; HC 48 M, 67 V, 69 I, 71 V, 73 T) VH: EVQLVQSGAEVKKPGASVKVSCKASGYTFTSYWMHWVRQAPGQRLEWMGEINPTNGRTNYIEKFKSRVTITVDTSASTAYMELSSLRSEDTAVYYCARGTRAYHYWGQGTMVTVSS VL: DIQMTQSPSSLSASVGDRVTITCRASDNLYSNLAWYQQKPGKSPKLLVYDATNLADGVPSRFSGSGSGTDYTLTISSLQPEDFATYYCQHFWGTPLTFGQGTKVEIK
2 | 1.67 | 0.279 |  |  |  |  |  |  |  |  |  |  |  | hu7A4.v1 (antibody, V domains shown, IgG) VH: EVQLVQSGAEVKKPGASVKVSCKASGYTFTDYAMHWVRQAPGQGLEWMGGISTYFGRTNYNQKFKGRVTMTRDTSISTAYMELSRLRSDDTAVYYCARGLSGNYVMDYWGQGTTVTVSS VL: DIVMTQSPDSLAVSLGERATINCRASESVDSYGNSFMHWYQQKPGQPPKLLIYRASNLESGVPDRFSGSGSGTDFTLTISSLQAEDVAVYYCQQSNEGPPTFGQGTKLEIK
3 | 1.22 | 0.232 |  |  |  |  |  |  |  |  |  |  |  | hu7A4.v2 (antibody, V domains shown, IgG) VH: EVQLVQSGAEVKKPGASVKVSCKGSGYTFTDYAMHWVRQAPGQGLEWMGGISTYFGRTNYNQKFKGRVTMTRDTSISTAYMELSRLRSDDTAVYYCARGLSGNYVMDYWGQGTTVTVSS VL: DIVMTQSPDSLAVSLGERATINCRASESVDSYGNSFMHWYQQKPGQPPKLLIYRASNLESGVPDRFSGSGSGTDFTLTISSLQAEDVAVYYCQQSNEGPPTFGQGTKLEIK
4 |  |  | 8.2 | 8.4 | 0.417 | 5.06 | 7.31 | 5 | 5.4 | 7.11 | 84 | -89 | -175 | 5571 (antibody, V domains shown, anti-BACE1 IgG) VH: QVQLVQSGAEVKKPGSSVKVSCKASGGTFSSYAISWVRQAPGQGLEWMGNIIPIFGTANYAQKFQGRVTITADESTSTAYMELSSLRSEDTAVYYCARSGGTKYGMLDVWGQGTVVTVSS VL: EIVMTQSPATLSVSPGERATLSCRASQSVSSNLAWYQQKPGQAPRLLIYGASTRATGIPARFSGSGSGTEFTLTISSLQSEDFAVYYCQQLILWPPRTFGGGTKVEIK
5 |  |  | 1.5 | 2 | 15.9 | 1.28 | 2.82 | 0.86 | 2.5 | 27.1 | 73 | 75 | 77 | 5572 (antibody, V domains shown, anti-BACE1 IgG) VH: QVQLVQSGAEVKKPGSSVKVSCKASGGTFSSYAISWVRQAPGQGLEWMGSIIPIFGTANYAQKFQGRVTITADESTSTAYMELSSLRSEDTAVYYCARSGGTKYGMLDVWGQGTMVTVSS VL: EIVMTQSPATLSVSPGERATLSCRASQSVGSNLAWYQQKPGQAPRLLIYGASTRATGIPARFSGSGSGTEFTLTISSLQSEDFAVYYCQQLYTWPPRTFGGGTKVEIK
6 |  |  | 12 | 11 | 8.47 | 8.75 | 13.3 | 15 | 17 | 8.33 | 72 | 65 | 63 | 5644 (antibody, V domains shown, anti-BACE1 IgG) VH: QLQLQESGPGLVKPSETLSLTCTVSGGSISSSSYYWGWIRQPPGKGLEWIGSIYYSGSTYYNPSLKSRVTISVDTSKNQFSLKLSSVTAADTAVYYCARVGHGISYFDLWGRGTLVTVSS VL: EIVLTQSPATLSLSPGERATLSCRASQSVSSYLAWYQQKPGQAPRLLIYDASKRATGIPARFSGSGSGTDFTLTISSLEPEDFAVYYCQQVYTWPPRTFGGGTKVEIK

Second part, the binder before the results:

Row | Binder | Kd [1] [nM] | Kd [2] [nM] | Kd (human BACE1 ECD [3]) [nM] | Kd (murine BACE1 ECD [4]) [nM] | EC50, FRET short substrate [5] [nM] | EC50, HTRF long substrate [5] [nM] | Kd [6] [nM] | Kd (human BACE1 ECD [7]) [nM] | Kd (murine BACE1 ECD [8]) [nM] | IC50, Abeta x-40 in mouse cortical neurons [9] [nM] | maximal % inhibition of Abeta x-40 [9] [%] | % inhibition of BACE1 activity, short FRET substrate (human BACE1 ECD [10]) [%] | % inhibition of BACE1 activity, short FRET substrate (murine BACE1 ECD [11]) [%]
7 | hu15G11.v1 (antibody, V domains shown, IgG; HC 48 M, 67 V, 69 I, 71 R, 73 T) VH: EVQLVQSGAEVKKPGASVKVSCKASGYTFTSYWMHWVRQAPGQRLEWMGEINPTNGRTNYIEKFKSRVTITRDTSASTAYMELSSLRSEDTAVYYCARGTRAYHYWGQGTMVTVSS VL: DIQMTQSPSSLSASVGDRVTITCRASDNLYSNLAWYQQKPGKAPKLLLYDATNLADGVPSRFSGSGSGTDYTLTISSLQPEDFATYYCQHFWGTPLTFGQGTKVEIK | 10.1 | 5.12 |  |  |  |  |  |  |  |  |  |  | 
8 | hu15G11.v2 (antibody, V domains shown, IgG; HC 48 M, 67 V, 69 I, 71 V, 73 T) VH: EVQLVQSGAEVKKPGASVKVSCKASGYTFTSYWMHWVRQAPGQRLEWMGEINPTNGRTNYIEKFKSRVTITVDTSASTAYMELSSLRSEDTAVYYCARGTRAYHYWGQGTMVTVSS VL: DIQMTQSPSSLSASVGDRVTITCRASDNLYSNLAWYQQKPGKAPKLLLYDATNLADGVPSRFSGSGSGTDYTLTISSLQPEDFATYYCQHFWGTPLTFGQGTKVEIK | 17.6 | 9.35 |  |  |  |  |  |  |  |  |  |  | 
9 | hu15G11.v3 (antibody, V domains shown, IgG; HC 48 M, 67 V, 69 I, 71 R, 73 T) VH: EVQLVQSGAEVKKPGASVKVSCKASGYTFTSYWMHWVRQAPGQRLEWMGEINPTNGRTNYIEKFKSRVTITRDTSASTAYMELSSLRSEDTAVYYCARGTRAYHYWGQGTMVTVSS VL: DIQMTQSPSSLSASVGDRVTITCRASDNLYSNLAWYQQKPGKSPKLLVYDATNLADGVPSRFSGSGSGTDYTLTISSLQPEDFATYYCQHFWGTPLTFGQGTKVEIK | 5.34 | 4.12 |  |  |  |  |  |  |  |  |  |  | 
10 | hu7A4.v4 (antibody, V domains shown, IgG) VH: EVQLVQSGAEVKKPGASVKVSCKGSGYTFTDYAMHWVRQAPGQGLEWMGGISTYFGRTNYNQKFKGRVTMTVDTSISTAYMELSRLRSDDTAVYYCARGLSGNYVMDYWGQGTTVTVSS VL: DIVMTQSPDSLAVSLGERATINCRASESVDSYGNSFMHWYQQKPGQPPKLLIYRASNLESGVPDRFSGSGSGTDFTLTISSLQAEDVAVYYCQQSNEGPPTFGQGTKLEIK | 3.83 | 0.612 |  |  |  |  |  |  |  |  |  |  | 
11 | hu7A4.v3 (antibody, V domains shown, IgG) VH: EVQLVQSGAEVKKPGASVKVSCKASGYTFTDYAMHWVRQAPGQGLEWMGGISTYFGRTNYNQKFKGRVTMTVDTSISTAYMELSRLRSDDTAVYYCARGLSGNYVMDYWGQGTTVTVSS VL: DIVMTQSPDSLAVSLGERATINCRASESVDSYGNSFMHWYQQKPGQPPKLLIYRASNLESGVPDRFSGSGSGTDFTLTISSLQAEDVAVYYCQQSNEGPPTFGQGTKLEIK | 2.9 | 0.543 |  |  |  |  |  |  |  |  |  |  | 
12 | 5260 (antibody, V domains shown, anti-BACE1 IgG) VH: QVQLVQSGAEVKKPGSSVKVSCKASGGTFSSYAISWVRQAPGQGLEWMGSIIPIFGTANYAQKFQGRVTITADESTSTAYMELSSLRSEDTAVYYCARSGGTKYGMLDVWGQGTMVTVSS VL: EIVMTQSPATLSVSPGERATLSCRASQSVGSNLAWYQQKPGQAPRLLIYGASTRATGIPARFSGSGSGTEFTLTISSLQSEDFAVYYCQQAVVWPPRTFGGGTKVEIK |  |  | 120 | 180 | 36.8 | 720 | 14.5 | 94 | 94 | 46.7 | 74 | -54 | -35
13 | 5883 (antibody, V domains shown, anti-BACE1 IgG) VH: QVQLVQSGAEVKKPGSSVKVSCKASGGTFSSYAISWVRQAPGQGLEWMGGIIPIGGGANYAQKFQGRVTITADESTSTAYMELSSLRSEDTAVYYCARSGGTKYGMLDVWGQGTMVTVSS VL: EIVMTQSPATLSVSPGERATLSCRASQSVSSNLAWYQQKPGQAPRLLIYGASTRATGIPARFSGSGSGTEFTLTISSLQSEDFAVYYCQQLILWPPRTFGGGTKVEIK |  |  | 8.7 | 11 | 0.607 | 5.93 | 6.04 | 4.6 | 6.6 | 9.11 | 82 | -129 | -275
